Here are results for 1 substance from PMC5783996.

For this experiment, the target named is Botryococcus braunii light-harvesting complexes (BB LHCII), apoproteins of the trimeric fraction B3 (Botryococcus braunii (endogenous in strain CCALA778 thylakoids)). Nature of the experiment: sucrose density gradient ultracentrifugation; thylakoids solubilised with 1% α-DM (also OG) at room temperature, complexes separated on a sucrose density gradient; bands assigned by position (MW).

What is called stoichiometry N is the number of molecules, sites or subunits per partner or assembly. “Botryococcus braunii light-harvesting complexes (BB LHCII), apoproteins of the trimeric fraction B3” returned a stoichiometry N of 3.
